From article PMC6304784

Tests used:
[1] = target: N-terminally GFP-tagged full-length wild-type MyD88 (human) (UniProt Q99836); test: fluorescence correlation spectroscopy (FCS); GFP-tagged protein in the cell-free expression mixture; single diffusing species model; hydrodynamic radius normalised to sfGFP
[2] = target: mCherry-tagged full-length wild-type MyD88 (human) (UniProt Q99836); test: two-colour single-particle coincidence spectroscopy (seeding assay); mCherry-tagged full-length MyD88 filaments spun down and sonicated ('seeds') added to GFP-tagged full-length MyD88 expressed over a range of concentrations (10 nM and above); 488 nm and 561 nm lasers; traces of 180 s
[3] = target: N-terminally GFP-tagged full-length wild-type MyD88 (human) (UniProt Q99836); test: single-molecule fluorescence fluctuation spectroscopy (brightness B parameter, time-traces, intensity histograms); GFP-tagged protein freely diffusing in the cell-free expression mixture on a confocal microscope, 488-nm laser; dilution series of the DNA template giving 0 to about 320 nM protein; mutants compared at 150 nM; samples diluted 10 times in buffer A

Chain of mCherry-tagged full-length wild-type MyD88 (human) (Q99836 whole entry): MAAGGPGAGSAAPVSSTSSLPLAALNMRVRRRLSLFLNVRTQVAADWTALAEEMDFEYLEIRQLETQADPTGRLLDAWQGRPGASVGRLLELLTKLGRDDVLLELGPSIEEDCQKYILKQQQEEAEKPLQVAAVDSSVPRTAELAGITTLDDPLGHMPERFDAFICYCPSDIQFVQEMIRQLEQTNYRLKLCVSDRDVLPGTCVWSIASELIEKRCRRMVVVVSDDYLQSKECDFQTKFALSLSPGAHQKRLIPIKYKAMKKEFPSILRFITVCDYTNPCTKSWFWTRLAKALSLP

stoichiometry N (monomeric units) [1]: > 100
critical concentration for aggregation (Cc) [3]: 150 nM
stoichiometry N [3]: > 100 proteins
Substance: N-terminally GFP-tagged full-length wild-type MyD88 (from UniProt Q99836 1-296) (natural protein)
critical concentration for polymerisation in the presence of seeds [2]: 10 nM
